Assay results from PMC7098639.

Assays:
Assay in all cases: FRET or BRET; biosensor lysate at three concentrations (200,000, 400,000 and 800,000 RLU) incubated with VEGF ranges adjusted for each biosensor; Delta eBRET2 ratio against the biosensor without VEGF
[1] = target: eBRET2 VEGF biosensor Re02 (Rluc8 - VEGF receptor 1 domain 3 - GFP2) (human)
[2] = target: eBRET2 VEGF biosensor Re06 (Rluc8 - VEGF receptor 2 domain 3 - GFP2) (human)
[3] = target: eBRET2 VEGF biosensor Re07 (Rluc8 - VEGF receptor 2 domains 2 and 3 - GFP2) (human)
[4] = target: eBRET2 VEGF biosensor Re09 (Rluc8 - VEGF receptor 1 domain 2 - VEGF receptor 2 domain 3 - GFP2) (human)

Sequence of eBRET2 VEGF biosensor Re06 (Rluc8 - VEGF receptor 2 domain 3 - GFP2) (human) (P35968 20-764): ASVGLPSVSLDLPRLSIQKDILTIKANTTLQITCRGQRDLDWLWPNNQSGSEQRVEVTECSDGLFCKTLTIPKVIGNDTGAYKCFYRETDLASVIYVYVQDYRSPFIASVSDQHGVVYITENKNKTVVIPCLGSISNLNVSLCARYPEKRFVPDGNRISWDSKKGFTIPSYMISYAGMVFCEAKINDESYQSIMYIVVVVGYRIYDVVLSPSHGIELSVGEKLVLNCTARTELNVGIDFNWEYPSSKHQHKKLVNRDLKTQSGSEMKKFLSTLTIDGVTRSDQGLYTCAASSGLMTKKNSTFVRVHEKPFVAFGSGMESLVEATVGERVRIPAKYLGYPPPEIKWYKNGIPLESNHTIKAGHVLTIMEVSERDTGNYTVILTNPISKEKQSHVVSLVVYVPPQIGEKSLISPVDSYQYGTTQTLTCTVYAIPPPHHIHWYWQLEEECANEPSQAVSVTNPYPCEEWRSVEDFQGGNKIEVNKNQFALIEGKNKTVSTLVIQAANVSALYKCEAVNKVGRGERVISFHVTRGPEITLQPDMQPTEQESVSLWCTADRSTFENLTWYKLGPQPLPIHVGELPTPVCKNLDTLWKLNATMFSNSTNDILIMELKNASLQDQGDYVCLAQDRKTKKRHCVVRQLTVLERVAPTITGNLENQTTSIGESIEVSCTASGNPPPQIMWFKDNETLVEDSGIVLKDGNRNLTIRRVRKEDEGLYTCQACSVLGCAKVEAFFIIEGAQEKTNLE
Sequence of eBRET2 VEGF biosensor Re02 (Rluc8 - VEGF receptor 1 domain 3 - GFP2) (human) (P17948 27-758): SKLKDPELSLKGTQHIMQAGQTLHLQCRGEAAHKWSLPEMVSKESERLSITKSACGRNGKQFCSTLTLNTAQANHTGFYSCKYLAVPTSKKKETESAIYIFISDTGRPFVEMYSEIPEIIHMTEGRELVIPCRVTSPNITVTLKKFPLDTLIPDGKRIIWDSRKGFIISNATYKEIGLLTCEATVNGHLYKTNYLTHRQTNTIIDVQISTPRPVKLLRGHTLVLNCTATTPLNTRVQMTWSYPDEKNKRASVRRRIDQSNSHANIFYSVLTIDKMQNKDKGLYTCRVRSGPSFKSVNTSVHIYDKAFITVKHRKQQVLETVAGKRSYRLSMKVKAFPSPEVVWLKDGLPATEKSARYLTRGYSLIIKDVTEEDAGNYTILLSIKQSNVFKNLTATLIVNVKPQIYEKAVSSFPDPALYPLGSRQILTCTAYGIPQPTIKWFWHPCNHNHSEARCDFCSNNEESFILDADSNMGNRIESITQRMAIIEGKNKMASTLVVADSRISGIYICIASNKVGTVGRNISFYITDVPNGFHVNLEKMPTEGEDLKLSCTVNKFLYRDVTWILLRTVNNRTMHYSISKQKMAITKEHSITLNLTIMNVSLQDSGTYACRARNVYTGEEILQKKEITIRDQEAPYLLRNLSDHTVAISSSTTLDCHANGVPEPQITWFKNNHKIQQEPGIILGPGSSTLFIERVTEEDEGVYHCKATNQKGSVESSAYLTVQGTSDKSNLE
Sequence of eBRET2 VEGF biosensor Re07 (Rluc8 - VEGF receptor 2 domains 2 and 3 - GFP2) (human) (P35968 20-764): as the sequence (P35968 20-764) above

Delta eBRET2 ratio (ΔBR) at 0.1 ng/ml VEGF, biosensor at 200,000 RLU [1]: 2.95 mBU
Delta eBRET2 ratio (ΔBR) at 100 ng/ml VEGF, biosensor at 200,000 RLU [1]: 42.5 mBU
Delta eBRET2 ratio (ΔBR) at 1000 pg/ml VEGF, biosensor at 200,000 RLU [2]: 41 mBU
maximum Delta eBRET2 ratio (ΔBR) at 1000 pg/ml VEGF, biosensor at 400,000 RLU [2]: 106 mBU
maximum Delta eBRET2 ratio (ΔBR) at 4 ng/ml VEGF, biosensor at 400,000 RLU [3]: 27.7 mBU
maximum Delta eBRET2 ratio (ΔBR) at 1 μg/ml VEGF, biosensor at 200,000 RLU [4]: 62.6 mBU
maximum Delta eBRET2 ratio (ΔBR) at 1 μg/ml VEGF, biosensor at 800,000 RLU [4]: 100 mBU
Substance: recombinant human VEGF (Active Max VEGF-A165) (ligand)
